Laboratory results published in patent US20200002431A1 (Seagen, published 2020).
Residue numbers refer to the chain shown, from its start.

T1: human BCMA (B-cell maturation antigen, CD269) expressed on cells (human, UniProt Q02223 1-184)
T1 construct: Endogenous on myeloma lines (NCI-H929, U266, JJN3) or a full-length clone transfected into HEK 293 cells; also called hBCMA; BCMA expressed on NCI-H929 cells
T1 sequence: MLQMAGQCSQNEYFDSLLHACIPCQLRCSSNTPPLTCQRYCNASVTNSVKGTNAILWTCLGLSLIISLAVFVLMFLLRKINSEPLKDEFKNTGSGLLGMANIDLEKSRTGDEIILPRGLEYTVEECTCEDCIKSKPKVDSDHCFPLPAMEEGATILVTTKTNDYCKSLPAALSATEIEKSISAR

B1: hSG16.17 vH3 vK2 (antibody, V domains shown)
VH: QVQLVQSGAEVKKPGASVKLSCKASGYTFTDYYIHWVRQAPGQGLEWIGYINPNSGYTNYAQKFQGRATMTADKSINTAYVELSRLRSDDTAVYFCTRYMWERVTGFFDFWGQGTMVTVSS
VL: DIQMTQSPSSVSASVGDRVTITCLASEDISDDLAWYQQKPGKAPKVLVYTTSSLQSGVPSRFSGSGSGTDFTLTISSLQPEDFATYFCQQTYKFPPTFGGGTKVEIKR
notes: also called hSG16.17 9; VH3 VK2 humanized antibody
B2: hSG16.17 vH5 vK4 (antibody, V domains shown)
VH: B1 VH with L20V, N59K, A61N, Q62E, K63N, Q65K, G66T, I76T, R85S, D89E
VL: B1 VL with S53R, L78M, T85D
notes: also called hSG16.17 19
B3: hSG16.17 vH2 vK2 (antibody, V domains shown)
VH: B1 VH with I34M, Y50R, A68V
VL: B1 VL
notes: also called hSG16.17 5
B4: hSG16.17 vH5 vK3 (antibody, V domains shown)
VH: B1 VH with L20V, N59K, A61N, Q62E, K63N, Q65K, G66T, I76T, R85S, D89E
VL: B1 VL with L24R
notes: also called hSG16.17 18
B5: hSG16.17 vH2 vK4 (antibody, V domains shown)
VH: B1 VH with I34M, Y50R, A68V
VL: B1 VL with S53R, L78M, T85D
notes: also called hSG16.17 7
B6: hSG16.17 vH1 vK2 (antibody, V domains shown)
VH: B1 VH with G8R, N59K, A61N, Q62E, K63N, Q65K, G66T
VL: B1 VL
notes: also called hSG16.17 1
B7: hSG16.17 vH3 vK5 (antibody, V domains shown)
VH: B1 VH
VL: B1 VL with L24R, P40S
notes: also called hSG16.17 12
B8: hSG16.17 vH1 vK4 (antibody, V domains shown)
VH: B1 VH with G8R, N59K, A61N, Q62E, K63N, Q65K, G66T
VL: B1 VL with S53R, L78M, T85D
notes: also called hSG16.17 3
B9: hSG16.17 vH6 vK5 (antibody, V domains shown)
VH: B1 VH with G8R, I34M, Y50I, N59S, A68V, I76T, R85S, D89E
VL: B1 VL with L24R, P40S
notes: also called hSG16.17 24
B10: hSG16.17 vH6 vK3 (antibody, V domains shown)
VH: B1 VH with G8R, I34M, Y50I, N59S, A68V, I76T, R85S, D89E
VL: B1 VL with L24R
notes: also called hSG16.17 22
B11: hSG16.17 vH1 vK3 (antibody, V domains shown)
VH: B1 VH with G8R, N59K, A61N, Q62E, K63N, Q65K, G66T
VL: B1 VL with L24R
notes: also called hSG16.17 2
B12: hSG16.17 vH1 vK5 (antibody, V domains shown)
VH: B1 VH with G8R, N59K, A61N, Q62E, K63N, Q65K, G66T
VL: B1 VL with L24R, P40S
notes: also called hSG16.17 4
B13: hSG16.17 vH3 vK4 (antibody, V domains shown)
VH: B1 VH
VL: B1 VL with S53R, L78M, T85D
notes: also called hSG16.17 11
B14: hSG16.17 vH2 vK3 (antibody, V domains shown)
VH: B1 VH with I34M, Y50R, A68V
VL: B1 VL with L24R
notes: also called hSG16.17 6
B15: hSG16.17 vH6 vK2 (antibody, V domains shown)
VH: B1 VH with G8R, I34M, Y50I, N59S, A68V, I76T, R85S, D89E
VL: B1 VL
notes: also called hSG16.17 21
B16: hSG16.17 vH3 vK3 (antibody, V domains shown)
VH: B1 VH
VL: B1 VL with L24R
notes: also called hSG16.17 10
B17: hSG16.17 vH2 vK5 (antibody, V domains shown)
VH: B1 VH with I34M, Y50R, A68V
VL: B1 VL with L24R, P40S
notes: also called hSG16.17 8
B18: hSG16.17 vH5 vK5 (antibody, V domains shown)
VH: B1 VH with L20V, N59K, A61N, Q62E, K63N, Q65K, G66T, I76T, R85S, D89E
VL: B1 VL with L24R, P40S
notes: also called hSG16.17 20
B19: hSG16.17 vH6 vK4 (antibody, V domains shown)
VH: B1 VH with G8R, I34M, Y50I, N59S, A68V, I76T, R85S, D89E
VL: B1 VL with S53R, L78M, T85D
notes: also called hSG16.17 23
B20: hSG16.17 vH5 vK2 (antibody, V domains shown)
VH: B1 VH with L20V, N59K, A61N, Q62E, K63N, Q65K, G66T, I76T, R85S, D89E
VL: B1 VL
notes: also called hSG16.17 17
B21: hSG16.45 vH1 vK1 (antibody, V domains shown)
VH: EVQLLESGGGLVQPGGSLRLSCAASGFTFNDHWMTWIRQAPGKGLEWISSITNTGGATYYLDSVKGRFTISRDNSKNTLYLQMNSLRAEDTAVYYCTSPGLYFDYWGQGVMVTVSS
VL: EIVLTQSPGTLSASPGERVTISCRASSSVSVMYWYQHKPGQAPRLLIYSTSSLASGVPDRFSGSGSGTDYTLTISRMEPEDFAVYYCHQWSSDPPTFGQGTKLEIKR
notes: also called hSG16.45 1
B22: cSG16.45 (antibody, V domains shown)
VH: B21 VH with L5V, G16R, R19K, A23V, K43R, S75A, N77S, A88S, V93T
VL: EIVLTQSPTTTAASPGEKVTITCLATSSVSVMYWYQHKSGASPKLLIYSTSSLASGVPDRFSGSGSGTSYSLTINTMEAEDAATYYCHQWSSDPPTFGSGTKLEIKR
notes: also called chimeric SG16.45
B23: rat SG16.45 antibody (antibody, V domains shown)
VH: B21 VH with L5V, G16R, R19K, A23V, K43R, S75A, N77S, A88S, V93T
VL: B22 VL
notes: Rat monoclonal antibody; also called rSG16.45; hybridoma well 45
B24: hSG16.45 vH6 vK2 (antibody, V domains shown)
VH: B21 VH with L5V, G16R, I37V, I48V, S50G, L61A, S75A, T78S, V93L, V110T
VL: B21 VL with A13L, V19A, I21L, H37Q, V57I, Y70F, M77L
notes: also called hSG16.45 22
B25: hSG16.45 vH6 vK5 (antibody, V domains shown)
VH: B21 VH with L5V, G16R, I37V, I48V, S50G, L61A, S75A, T78S, V93L, V110T
VL: B21 VL with A13L, V19A, I21L, R24L, S26T, V57I, M77L
notes: also called hSG16.45 24
B26: hSG16.45 vH6 vK1 (antibody, V domains shown)
VH: B21 VH with L5V, G16R, I37V, I48V, S50G, L61A, S75A, T78S, V93L, V110T
VL: B21 VL
notes: also called hSG16.45 21
B27: hSG16.45 vH4 vK1 (antibody, V domains shown)
VH: B21 VH with I37V, L61A, N77S, V110T
VL: B21 VL
notes: also called hSG16.45 13
B28: hSG16.45 vH1 vK2 (antibody, V domains shown)
VH: B21 VH
VL: B21 VL with A13L, V19A, I21L, H37Q, V57I, Y70F, M77L
notes: also called hSG16.45 2
B29: hSG16.45 vH6 vK3 (antibody, V domains shown)
VH: B21 VH with L5V, G16R, I37V, I48V, S50G, L61A, S75A, T78S, V93L, V110T
VL: B21 VL with A13L, V19A, M77L
notes: also called hSG16.45 23
B30: hSG16.45 vH3 vK5 (antibody, V domains shown)
VH: B21 VH with S50A, L61A, N77S
VL: B21 VL with A13L, V19A, I21L, R24L, S26T, V57I, M77L
notes: also called hSG16.45 12
B31: hSG16.45 vH5 vK5 (antibody, V domains shown)
VH: B21 VH with L5V, I37V, E46V, I48V, L61A, S75A, V110T
VL: B21 VL with A13L, V19A, I21L, R24L, S26T, V57I, M77L
notes: also called hSG16.45 20
B32: hSG16.45 vH4 vK2 (antibody, V domains shown)
VH: B21 VH with I37V, L61A, N77S, V110T
VL: B21 VL with A13L, V19A, I21L, H37Q, V57I, Y70F, M77L
notes: also called hSG16.45 14
B33: hSG16.45 vH1 vK5 (antibody, V domains shown)
VH: B21 VH
VL: B21 VL with A13L, V19A, I21L, R24L, S26T, V57I, M77L
notes: also called hSG16.45 4
B34: hSG16.45 vH5 vK1 (antibody, V domains shown)
VH: B21 VH with L5V, I37V, E46V, I48V, L61A, S75A, V110T
VL: B21 VL
notes: also called hSG16.45 17
B35: hSG16.45 vH1 vK3 (antibody, V domains shown)
VH: B21 VH
VL: B21 VL with A13L, V19A, M77L
notes: also called hSG16.45 3
B36: hSG16.45 vH5 vK3 (antibody, V domains shown)
VH: B21 VH with L5V, I37V, E46V, I48V, L61A, S75A, V110T
VL: B21 VL with A13L, V19A, M77L
notes: also called hSG16.45 19
B37: hSG16.45 vH4 vK3 (antibody, V domains shown)
VH: B21 VH with I37V, L61A, N77S, V110T
VL: B21 VL with A13L, V19A, M77L
notes: also called hSG16.45 15
B38: hSG16.45 vH4 vK5 (antibody, V domains shown)
VH: B21 VH with I37V, L61A, N77S, V110T
VL: B21 VL with A13L, V19A, I21L, R24L, S26T, V57I, M77L
notes: also called hSG16.45 16
B39: hSG16.45 vH5 vK2 (antibody, V domains shown)
VH: B21 VH with L5V, I37V, E46V, I48V, L61A, S75A, V110T
VL: B21 VL with A13L, V19A, I21L, H37Q, V57I, Y70F, M77L
notes: also called hSG16.45 18

Columns and labels:
[1] = biological target: T1, human BCMA (B-cell maturation antigen, …); experiment: cell binding, NCI-H929 cells expressing BCMA, 3-pt assay
Description: The six humanized heavy chains and four humanized light chains were tested in all 24 possible permutations for binding to BCMA expressed on NCI-H929 cells, which express about 50,000 molecules of BCMA per cell.

[2] = biological target: T1, human BCMA (B-cell maturation antigen, …); experiment: cell binding, U266 cells, full range of concentration points

Binder | binding result [1] | binding result [2]
B1 | binds | –
B2 | binds | –
B3 | – | binds
B4 | binds | –
B5 | – | binds
B6 | binds | –
B7 | binds | –
B8 | binds | –
B9 | binds | –
B10 | binds | –
B11 | binds | –
B12 | binds | –
B13 | binds | –
B14 | – | binds
B15 | binds | –
B16 | binds | –
B17 | – | binds
B18 | binds | –
B19 | binds | –
B20 | binds | –

Binder | binding result [1] | binding result [2]
B21 | binds | –
B22 | binds | –
B23 | binds | –
B24 | binds | –
B25 | binds | –
B26 | binds | –
B27 | binds | –
B28 | binds | –
B29 | binds | –
B30 | binds | –
B31 | binds | –
B32 | binds | –
B33 | binds | –
B34 | binds | –
B35 | binds | –
B36 | binds | –
B37 | binds | –
B38 | binds | –
B39 | binds | –
